Laboratory results reported in paper PMC6880163 (Journal of Virology, 2019).

Biological target: the molecule itself
Experiment: cross-linking; intact doxycycline-induced HT1080 cells in 1x PBS treated with 0.2 mM EGS (membrane-permeable) for 30 min at room temperature, lysed in LDS sample buffer, Western blot with anti-RFP antibody

Protein | stoichiometry N
TagRFP/TRIM69 V95A L96A double mutant (natural protein, human, UniProt Q86WT6 1-500, looked up, also called multimerization-defective mutant of TRIM69; not shown: TagRFP, N-terminal, kept) MEVSTNPSSNIDPGDYVEMNDSITHLPSKVVIQDITMELHCPLCNDWFRDPLMLSCGHNFCEACIQDFWRLQAKETFCPECKMLCQYNNCTFNPAADKLVEKIKKLPLLKGHPQCPEHGENLKLFSKPDGKLICFQCKDARLSVGQSKEFLQISDAVHFFTEELAIQQGQLETTLKELQTLRNMQKEAIAAHKENKLHLQQHVSMEFLKLHQFLHSKEKDILTELREEGKALNEEMELNLSQLQEQCLLAKDMLVSIQAKTEQQNSFDFLKDITTLLHSLEQGMKVLATRELISRKLNLGQYKGPIQYMVWREMQDTLCPGLSPLTLDPKTAHPNLVLSKSQTSVWHGDIKKIMPDDPERFDSSVAVLGSRGFTSGKWYWEVEVAKKTKWTVGVVRESIIRKGSCPLTPEQGFWLLRLRNQTDLKALDLPSFSLTLTNNLDKVGIYLDYEGGQLSFYNAKTMTHIYTFSNTFMEKLYPYFCPCLNDGGENKEPLHILHPQ | 2
TagRFP/TRIM69 L99A single mutant (natural protein, human, UniProt Q86WT6 1-500, looked up, also called multimerization-defective mutant of TRIM69; not shown: TagRFP, N-terminal, kept) MEVSTNPSSNIDPGDYVEMNDSITHLPSKVVIQDITMELHCPLCNDWFRDPLMLSCGHNFCEACIQDFWRLQAKETFCPECKMLCQYNNCTFNPVLDKAVEKIKKLPLLKGHPQCPEHGENLKLFSKPDGKLICFQCKDARLSVGQSKEFLQISDAVHFFTEELAIQQGQLETTLKELQTLRNMQKEAIAAHKENKLHLQQHVSMEFLKLHQFLHSKEKDILTELREEGKALNEEMELNLSQLQEQCLLAKDMLVSIQAKTEQQNSFDFLKDITTLLHSLEQGMKVLATRELISRKLNLGQYKGPIQYMVWREMQDTLCPGLSPLTLDPKTAHPNLVLSKSQTSVWHGDIKKIMPDDPERFDSSVAVLGSRGFTSGKWYWEVEVAKKTKWTVGVVRESIIRKGSCPLTPEQGFWLLRLRNQTDLKALDLPSFSLTLTNNLDKVGIYLDYEGGQLSFYNAKTMTHIYTFSNTFMEKLYPYFCPCLNDGGENKEPLHILHPQ | 2
